Measured values as given in patent publication US20060246421.
Numbering of substitutions follows the chain as printed. Names may count otherwise.

B1: NS3 helicase (NS3h), wild type, hepatitis C virus (protein)
chain: AVDFVPVESMETTMRSPVFTDNSSPPAVPQTFQVAHLHAPTGSGKSTKVPAAYAAQGYKVLVLNPSVAATLGFGAYMSKAHGIDPNIRTGVRTITTGAPITYSTYGKFLADGGCSGGAYDIIICDECHSTDSTTILGIGTVLDQAETAGARLVVLATATPPGSVTVPHPNIEEVALSSTGEIPFYGKAIPIETIKGGRHLIFCHSKKKCDELAAKLSGLGLNAVAYYRGLDVSVIPTSGDVIVVATDALMTGFTGDFDSVIDCNTCVTQTVDFSLDPTFTIETTTVPQDAVSRSQRRGRTGRGRMGIYRFVTPGERPSGMFDSSVLCECYDAGCAWYELTPAETSVRLRAYLNTPGLPVCQDHLEFWESVFTGLTHIDAHFLSQTKQAGDNFPYLVAYQATVCARAQAPPPSWDQMWKCLIRLKPTLHGPTPLLYRLGAVQNEVTTTHPITKYIMACMSADLEVVT
B2: NS3h KDA (D543K/H545D/Q549A mutant NS3 helicase) (protein)
chain: B1 chain with D378K, H380D, Q384A

Protein	amplitude of single turnover DNA unwinding (processivity)
B1	0.35 ± 0.01 nM
B2	0.21 ± 0.01 nM
